Earlier results, collected in patent publication US11931453B2, “Drug delivery device” (NANO PRECISION MEDICAL, INC., priority 2016, dated 2024).

Details: estimated, based on molecular dimensions of similar peptides (literature)

In the case of “GLP-1: Glucagon-Like Peptide-1; exenatide is an analog of GLP-1”, the “Stokes' diameter / hydrodynamic diameter” value is given as “about 2.6 nm”.
